For 2 substances, percent reduction of binding against wild-type GST-TDRD3-Tdr results are on record in publication PMC2536506.

The assay concerns the target GST-TDRD3-Tdr E691K (human). Put plainly: pull-down.

Turning to “Eukaryotic translation elongation factor 1 alpha 1 (from UniProt P68104 1-462) (natural protein)”, the percent reduction of binding against wild-type GST-TDRD3-Tdr is 90%.

On to “DEAD/H box-3 (from UniProt O00571-1 1-662) (natural protein)”, for which the percent reduction of binding against wild-type GST-TDRD3-Tdr was found to be 50%.
